Biological target: the molecule itself
Test: SEC-MALS

B1: VopL fragment 130-484 (3W-VCD) (domain or fragment, Vibrio parahaemolyticus, UniProt Q87GE5 130-484, looked up)
chain: SVNEDHSKLMEQIRQGVKLKSATKSLSADKSSADAHSKLMEELLTGGRKLKKVATSDIPAPPPLPSASTSKSPDSRNALLSEIAGFSKDRLRKTGSLETLNSSQSKDKESFEPTTHERLLSEDLFKQSPKLSEQELDELANNLADYLFQAADIDWHQVISEKTRGLTTEEMAKSEHRYVQAFCREILKYPDCYKSADVASPESPKSGGGSVIDVALKRLQTGRERLFTTTDEKGNRELKKGDAILESAINAARMAISTEEKNTILSNNVKSATFEVFCELPCMDGFAEQNGKTAFYALRAGFYSAFKNTDTAKQDITKFMKDNLQAGFSGYSYQGLTNRVAQLEAQLAALSAKLS
  stoichiometry N: 2
